Measurements taken from patent publication US20170334947A1.

Legend:
[1] = biological target: Fab fragment of anti-TNFα monoclonal antibody (generic name: Adalimumab) (humanized monoclonal IgG product (filing's words)); test: affinity chromatography, Fab kept after 40 CV wash, ligand 2.0 mg/mL-gel, 5.2 mg Fab loaded
[2] = biological target: Fab fragment of anti-TNFα monoclonal antibody (generic name: Adalimumab) (humanized monoclonal IgG product (filing's words)); test: affinity chromatography, ligand 2.0 mg/mL-gel
[3] = biological target: Fab fragment of anti-TNFα monoclonal antibody (generic name: Adalimumab) (humanized monoclonal IgG product (filing's words)); test: affinity chromatography, 55% DBC divided by immobilised ligand, 2.0 mg/mL-gel
[4] = biological target: Fab fragment of anti-TNFα monoclonal antibody (generic name: Adalimumab) (humanized monoclonal IgG product (filing's words)); test: affinity chromatography, Fab kept after 40 CV wash, ligand […]-gel, 10.5 mg Fab loaded
[5] = biological target: Fab fragment of anti-TNFα monoclonal antibody (generic name: Adalimumab) (humanized monoclonal IgG product (filing's words)); test: affinity chromatography, ligand […]-gel
[6] = biological target: Fab fragment of anti-TNFα monoclonal antibody (generic name: Adalimumab) (humanized monoclonal IgG product (filing's words)); test: affinity chromatography, Protein-G Sepharose FF
[7] = biological target: Fab fragment of anti-TNFα monoclonal antibody (generic name: Adalimumab) (humanized monoclonal IgG product (filing's words)); test: affinity chromatography, Fab kept after 40 CV wash, ligand 2.0 mg/mL-gel, 4.8 mg Fab loaded

Row | Recovery rate [1] | 55% DBC [2] | Binding capacity per ligand density [3] | Recovery rate [4] | 55% DBC [5] | 55% DBC [6] | Recovery rate [7] | Substance
1 | 28% | 10.4 mg/mL-gel | 5.2 | 43% | 21 mg/mL-gel |  |  | Pep-SpGβ1-Wild.2dC
2 |  |  |  |  |  | 6.2 mg/mL-gel |  | Protein G ligand of the commercial carrier Protein-G Sepharose FF (GE Healthcare)
3 |  | 9.7 mg/mL-gel |  |  |  |  | 6% | Protein G ligand of the commercial carrier HiTrap Protein-G HP (GE Healthcare)
